From patent US20120121507A1 (NATIONAL RESEARCH COUNCIL OF CANADA, published 2012)
Blank lines part the entries; values can stand above or below the binder they belong to.

Assays:
[1] = molecular target: T1, recombinant human clusterin (human, UniProt P10909 23-449); assay: SPR, rh-clusterin flowed over immobilized P3375R, response against the clusterin concentration [right panel]
T1 construct: also called rhCLU; rh-clusterin
Experimental: (§1) Protein-peptide interactions were followed using a BIAcore 3000 instrument (Biosensor AB, Uppsala, Sweden). All binding experiments were carried out at 25° C. under a continuous flow of the HBS-EP buffer (20 mM HEPES, 150 mM NaCl, 3.4 mM EDTA and 0.05% Tween-200) at pH 7.4 over the sensor surface at a flow rate of 20 μL/min. Different concentrations of rh-clusterin in the HBS-EP buffer were injected over the peptide-derivatized sensor chips. Dissociation was monitored for up to 300 s post-injection. The surfaces were fully regenerated by 15 s injection of an HBS-EP buffer solution containing 5 mM NaOH. […] Reference responses from control flow cells, containing unmodified dextran surfaces, were subtracted from peptide-containing flow cells, for each analyte injection using the BiaEvaluation software version 3.0 (Biacore AB, Uppsala, Sweden).
The sequence dependence of the clusterin-peptide interactions was investigated using SPR biosensor analysis and peptides with scrambled sequences. Immobilization of the peptides on the sensor chips and the SPR experiments were conducted as described in Example 4.

[2] = molecular target: T1, recombinant human clusterin; assay: SPR, rhCLU 0 nM to 1.4 µM over immobilized P3376 (150 RU), response at equilibrium, one-to-one binding model
Experimental: as §1
(§2) The resulting sensorgrams were used for kinetic rate determination through global fitting of the experimental data to a simple 1:1 Langmuir binding model. […] Affinity data (KD) from the binding studies were obtained by plotting the response in RU at the steady state, Req, versus the concentration of clusterin, C, and by fitting these curves to a one-site binding model, Req=C*xRmax/(C+KD) where Rmax is the value in RU at saturation and Req is the observed optical change in RU at each given C. […]

[3] = molecular target: T1, recombinant human clusterin; assay: SPR, rhCLU flowed over immobilized P3376, fit of the response against the clusterin concentration [inset]
Experimental: as §1, §2

[4] = molecular target: T1, recombinant human clusterin; assay: SPR (BIAcore 3000), rhCLU over immobilized P3378 (500 RU), kinetic global fit, 1:1 Langmuir
Experimental: as §1, §2

[5] = molecular target: T1, recombinant human clusterin; assay: SPR (BIAcore 3000), rhCLU 5.5 nM-1.4 µM over immobilized P3378 (500 RU), global fit, 1:1 Langmuir
Experimental: as §1, §2

[6] = molecular target: T1, recombinant human clusterin; assay: SPR, rh-clusterin 0-1.2 µM over immobilized P3378, no antibody; no antibody; rh-clusterin alone over immobilized P3378
Experimental: as §1, with “All” for “Protein-peptide interactions were followed using a BIAcore 3000 instrument (Biosensor AB, Uppsala, Sweden). All”
(§3) The question of whether an EMT-blocking anti-clusterin monoclonal antibody (mAb) 16B5 and P3378 have overlapping or independent binding sites on clusterin was investigated using SPR biosensor analysis. Several mAbs that interact with clusterin have been isolated; five of these mAbs, including 16B5, interact with an epitope on clusterin that is important for the EMT-promoting action of clusterin. Accordingly, these anti-clusterin mAbs inhibit EMT in cell culture, and tumor metastasis in animal models (O'Connor-McCourt et al, WO 2007/030930). […]

[7] = molecular target: T1, recombinant human clusterin; assay: SPR, rh-clusterin alone flowed over immobilized P3378, fit of the response against the clusterin concentration [inset]
Experimental: as §1, with “All” for “Protein-peptide interactions were followed using a BIAcore 3000 instrument (Biosensor AB, Uppsala, Sweden). All”
as §3

[8] = molecular target: T1, recombinant human clusterin; assay: SPR, rh-clusterin preincubated with mAb 16B5 (ratios of 1:1.7), flowed over immobilized P3378; rh-clusterin preincubated with mAb 16B5 (ratio 1:1.7)
Experimental: Different concentrations of rh-clusterin in the HBS-EP buffer were injected over the peptide-derivatized sensor chips. Dissociation was monitored for up to 300 s post-injection. The surfaces were fully regenerated by 15 s injection of an HBS-EP buffer solution containing 5 mM NaOH. […] Reference responses from control flow cells, containing unmodified dextran surfaces, were subtracted from peptide-containing flow cells, for each analyte injection using the BiaEvaluation software version 3.0 (Biacore AB, Uppsala, Sweden).
as §3, with “2007/030930). Since clusterin-binding peptides can be used to non-invasively image clusterin-expressing tumors (primary tumors and metastases) in vivo, it is important to determine whether treatment with anti-clusterin mAbs may block peptide binding to the clusterin target and therefore compromise the ability of the peptides to image the tumor.” for “2007/030930).”

[9] = molecular target: T1, recombinant human clusterin; assay: SPR, rhCLU flowed over immobilized P3375, global fit
Experimental: as §1, §2

[10] = molecular target: T1, recombinant human clusterin; assay: SPR (BIAcore 3000), rhCLU over immobilized P3375 (1200 RU), kinetic global fit, 1:1 Langmuir
Experimental: as §1, §2

[11] = molecular target: T1, recombinant human clusterin; assay: SPR (BIAcore 3000), rhCLU 2 nM-1.1 µM over immobilized P3375 (1200 RU), global fit, 1:1 Langmuir
Experimental: as §1, §2

[12] = molecular target: T1, recombinant human clusterin; assay: SPR, rhCLU flowed over immobilized P3378R
Experimental: as §1
This control peptide has the same amino acid content as P3378 but with a randomized sequence ([…]—SEQ ID NO:6). A lack of binding between rhCLU and this control peptide is evidenced by the linear nature of the Scatchard plot (inset; the response at equilibrium plotted against the concentration of rhCLU).

T1 sequence (P10909 23-449 limits assumed): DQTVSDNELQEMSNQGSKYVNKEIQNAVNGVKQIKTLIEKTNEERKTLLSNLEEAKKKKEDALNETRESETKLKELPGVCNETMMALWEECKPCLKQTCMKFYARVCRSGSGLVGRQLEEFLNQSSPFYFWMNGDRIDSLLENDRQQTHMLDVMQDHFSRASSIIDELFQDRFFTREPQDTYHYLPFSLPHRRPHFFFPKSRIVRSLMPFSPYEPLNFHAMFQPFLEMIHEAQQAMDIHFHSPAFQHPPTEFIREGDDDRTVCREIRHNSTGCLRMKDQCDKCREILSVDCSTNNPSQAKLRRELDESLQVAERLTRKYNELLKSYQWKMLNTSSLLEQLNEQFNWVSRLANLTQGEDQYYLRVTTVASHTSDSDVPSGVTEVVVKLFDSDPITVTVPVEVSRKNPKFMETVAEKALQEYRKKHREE

Binder: LSLYHTNTQFWQSGSGC (Immobilised on the SPR chip) [P3375R, randomized version of P3375 (LSLYHTNTQFWQSGSGC)]
- EC50 (read off the curve) [1]: ~200 nM

B1: P3376 synthetic peptide (SHALPLTWSTAA with C-terminal SGSGC extension) (peptide)
peptide: SHALPLTWSTAASGSGC
notes: In SPR it was immobilised through the C-terminal Cys (thioether); In STD-NMR it was free in solution
- Kd [2]: 340 nM
- Kd [3]: 342 nM

B3: P3375 synthetic peptide (NTYWSQLLHFQT with C-terminal SGSGC extension) (peptide)
peptide: NTYWSQLLHFQTSGSGC
notes: as for B1
- koff [9]: 0.00603 s⁻¹
- Kd [10]: 540 nM
- koff [11]: 0.006 s⁻¹
- kon [11]: 11200 M⁻¹ s⁻¹

Results, then the binder that gave them:

- Kd [4]: 300 nM
- koff [5]: 0.0052 s⁻¹
- kon [5]: 17200 M⁻¹ s⁻¹
- Kd [6]: 520 nM
- Kd [7]: 514 nM
- Kd [8]: 1100 nM
B2: P3378 synthetic peptide (HPLSKHPYWSQP with C-terminal SGSGC extension) (peptide)
peptide: HPLSKHPYWSQPSGSGC
notes: Synthesised by Fmoc chemistry; In SPR it was immobilised on a CM5 chip by a thioether bond from the C-terminal Cys to maleimide; In STD-NMR it was free in solution

- binding result [12]: no binding
B4: P3378R, randomized-sequence control peptide of P3378 (PYLHQSPHWKPSSGSGC) (peptide)
peptide: PYLHQSPHWKPSSGSGC
notes: Immobilised on the SPR chip; also called scrambled control peptide
